# Results as given in US20210292422A1 (SURROZEN, published 2021).
# T1: LRP6e1e2 (UniProt O75581 20-630)
# T1 construct: domain: e1e2; also called LRP6 E1E2 domains
# T1 sequence (looked up): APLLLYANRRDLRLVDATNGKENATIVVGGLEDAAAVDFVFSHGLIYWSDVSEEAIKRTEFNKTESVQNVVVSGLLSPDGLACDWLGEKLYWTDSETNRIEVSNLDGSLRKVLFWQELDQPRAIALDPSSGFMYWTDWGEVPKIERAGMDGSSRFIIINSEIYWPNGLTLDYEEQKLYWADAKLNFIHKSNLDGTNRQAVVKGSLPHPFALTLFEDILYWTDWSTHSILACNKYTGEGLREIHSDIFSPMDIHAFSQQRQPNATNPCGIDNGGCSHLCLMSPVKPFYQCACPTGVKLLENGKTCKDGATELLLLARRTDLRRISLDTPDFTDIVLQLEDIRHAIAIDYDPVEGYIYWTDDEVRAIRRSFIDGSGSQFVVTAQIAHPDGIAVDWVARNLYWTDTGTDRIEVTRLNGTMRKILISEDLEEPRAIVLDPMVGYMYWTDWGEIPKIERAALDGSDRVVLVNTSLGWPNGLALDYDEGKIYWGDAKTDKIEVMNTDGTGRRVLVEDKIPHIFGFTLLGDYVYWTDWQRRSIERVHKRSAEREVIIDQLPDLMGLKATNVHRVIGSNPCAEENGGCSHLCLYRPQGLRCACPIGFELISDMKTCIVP
# How the values were obtained:
# [1] = molecular target: Fzd7 CRD (UniProt O75084 44-163); experiment: BLI (Octet Red 96), biotinylated Fzd7 CRD on SA biosensor
# Experimental: Following capture of biotinylated-Fzd7, the SA biosensor with captured biotinylated-Fzd7 was dipped into wells containing the relevant antibodies at 7 different concentrations in running buffer plus a well with only running buffer as a reference channel. KD was determined by global fitting.
# [2] = molecular target: T1, LRP6e1e2; experiment: column 'Specificity (Clone name)' of the component table; method not given there
binding result [1],binding result [2],Binder
no binding,–,"1791-3 (bispecific antibody, human IgG1, kappa, L234A L235A) light: DVQLVESGGGLVQPGGSLRLSCTSSANINSIETLGWYRQAPGKQRELIANMRGGGYMKYAGSLKGRFTMSTESAKNTMYLQMNSLKPEDTAVYYCYVKLRDDDYVYRGQGTQVTVSSGSGSGDIVMTQSPKSMSMSVGERVTLRCKASENVLNYVSWYQQKPEQSPKLLIYGASNRYTGVPDRFTGSGSATDFTLTISSVQAEDLADYHCGQSYRYPTFGAGTKLELKRTVAAPSVFIFPPSDEQLKSGTASVVCLLNNFYPREAKVQWKVDNALQSGNSQESVTEQDSKDSTYSLSSTLTLSKADYEKHKVYACEVTHQGLSSPVTKSFNRGEC heavy: EVQPVESGGGLVQPKGSLKLSCAASGFTFNTYAMHWVRQAPGKGLEWVARIRSKSNNYAKNYDDSVKDRFTISRDDSQSMLYLQMNNLKTEDTAMYYCVRENYGGRFDYWGQGTTLTVSSASTKGPSVFPLAPSSKSTSGGTAALGCLVKDYFPEPVTVSWNSGALTSGVHTFPAVLQSSGLYSLSSVVTVPSSSLGTQTYICNVNHKPSNTKVDKKVEPKSCDKTHTCPPCPAPEAAGGPSVFLFPPKPKDTLMISRTPEVTCVVVDVSHEDPEVKFNWYVDGVEVHNAKTKPREEQYNSTYRVVSVLTVLHQDWLNGKEYKCKVSNKALGAPIEKTISKAKGQPREPQVYTLPPSREEMTKNQVSLTCLVKGFYPSDIAVEWESNGQPENNYKTTPPVLDSDGSFFLYSKLTVDKSRWQQGNVFSCSVMHEALHNHYTQKSLSLSPGK"
no binding,–,"1291-3 (bispecific antibody, human IgG1, kappa, L234A L235A) light: not shown heavy: EVQLVESGGGLVKPGGSLKLSCAASGFTFSSYAMSWVRQTPEKRLEWVATISDGGSYTRYPDKLKGRFTISRDNAKNNLYLQMSHLKSEDTAMYYCARVGGRRDYFDYWGQGTTLTVSSASTKGPSVFPLAPSSKSTSGGTAALGCLVKDYFPEPVTVSWNSGALTSGVHTFPAVLQSSGLYSLSSVVTVPSSSLGTQTYICNVNHKPSNTKVDKKVEPKSCDKTHTCPPCPAPEAAGGPSVFLFPPKPKDTLMISRTPEVTCVVVDVSHEDPEVKFNWYVDGVEVHNAKTKPREEQYNSTYRVVSVLTVLHQDWLNGKEYKCKVSNKALGAPIEKTISKAKGQPREPQVYTLPPSREEMTKNQVSLTCLVKGFYPSDIAVEWESNGQPENNYKTTPPVLDSDGSFFLYSKLTVDKSRWQQGNVFSCSVMHEALHNHYTQKSLSLSPGK"
–,binds,L1: antiLRP6E1E2 (1115.3) scFv (scFv) scFv: DVKLVESGGGLVKLGGSLRLSCAASGFSFSTSYMSWVRQTPEKRLELVAAINLNGGSTYYSDTVKGRFTISRDNAKNTLYLQMSSLKSEDTAFYYCASELAGYGTPFAYWGQGTLVTVSAGSAASGSSGGSSSGADIVLTQSPATLSVTPGDSVSLSCKASQSISYNLHWYQQKSHESPRLLIKYTSQSISGIPSRFSGSGSGTDFTLTINNVETEDFGMYFCQQSNSWPLTFGAGTKLEVK
